# Data taken from patent publication US11203743B2, “Method for producing long-chain glycosylated genistein” (Jiangnan University, priority 2019, dated 2021).
# Assay: Specificity of different cyclodextrin glucosyltransferases to glycosylated genistein products (maltodextrin donor, genistein receptor, HPLC)
# Assay type: biochemical
# Conditions: for content of long-chain glycosylated genistein in the reaction solution / content of short-chain glycosylated genistein in the reaction solution / ratio of the molar content of long-chain glycosylated genistein to the molar content of total glycosylated genistein in the reaction solution / ratio of the molar content of short-chain glycosylated genistein to the molar content of total glycosylated genistein in the reaction solution: 40° C., pH 6.5, 120 rpm, 20-24 hours; for specificity to long-chain glycosylated genistein products in comparison with wild type: in words, from Tables 1 to 2; for increase of the yield of long-chain glycosylated genistein compared with wild-type cyclodextrin glucosyltransferase: versus wild type
# Experimental: Genistein (purchased from Sigma) was dissolved in dimethyl sulfoxide (DMSO) to prepare a genistein solution with a final concentration of 7.5 g/L; maltodextrin (purchased from Shanghai Sangon Biotech Co., Ltd.) was dissolved in a PBS buffer (50 mM, pH 6.5) to prepare a maltodextrin solution with a final concentration of 40 g/L; the freeze-fried pure enzymes of the mutants A156V/L174P, A156V/L174P/166Y, A156V/L174P/A166V, A156V/L174P/A166G, A156V/L174P/A166K, A156S, A156L and L174M obtained in Example 1 were dissolved in a PBS buffer (50 mM, pH 6.5) separately to prepare a CGTase enzyme solution with a final concentration of 15 U/L; 300 μL of the genistein solution, 500 μL of the maltodextrin solution and 200 μL of the CGTase enzyme solution were taken separately, mixed in a 2 mL vial with a lid and placed in a shaker for slow shaking at 40° C. and 120 rpm for 20-24 hours to obtain a reaction solution.
# The molar content of short-chain glycosylated genistein (here the short-chain glycosylated genistein was a mixture of monoglycosylated genistein, diglycosylated genistein and triglycosylated genistein) and long-chain glycosylated genistein (here the long-chain glycosylated genistein was a mixture of tetraglycosylated genistein, pentaglycosylated genistein and hexaglycosylated genistein) in the reaction solution was detected by HPLC, the ratio (%) of the molar content of short-chain glycosylated genistein and long-chain glycosylated genistein in the reaction solution to the molar content of total glycosylated genistein in the reaction solution and the content (g/L) of short-chain glycosylated genistein and long-chain glycosylated genistein in the reaction solution were calculated, and detection results were shown in Tables 1 to 2. A method for detecting the ratio (%) of the content of short-chain glycosylated genistein and long-chain glycosylated genistein in the reaction solution to the content of total glycosylated genistein in the reaction solution by HPLC included that the reaction solution was filtered through a 0.22 μm filter membrane, and an Amethyst C18-H column (4.6*250 mm, Sepax, America) was used for detection (see Table 3 for specific detection conditions). The content of long-chain glycosylated genistein=the molar content of hexaglycosylated genistein*the molecular weight of hexaglycosylated genistein+ the molar content of pentaglycosylated genistein*the molecular weight of pentaglycosylated genistein+ the molar content of tetraglycosylated genistein*the molecular weight of tetraglycosylated genistein, and the content of short-chain glycosylated genistein=the molar content of triglycosylated genistein*the molecular weight of triglycosylated genistein+ the molar content of diglycosylated genistein*the molecular weight of diglycosylated genistein+ the molar content of monoglycosylated genistein*the molecular weight of monoglycosylated genistein.
Molecule,content of long-chain glycosylated genistein in the reaction solution [g/L],content of short-chain glycosylated genistein in the reaction solution [g/L],ratio of the molar content of long-chain glycosylated genistein to the molar content of total glycosylated genistein in the reaction solution [%],ratio of the molar content of short-chain glycosylated genistein to the molar content of total glycosylated genistein in the reaction solution [%],specificity to long-chain glycosylated genistein products in comparison with wild type,increase of the yield of long-chain glycosylated genistein compared with wild-type cyclodextrin glucosyltransferase [%]
"A156V/L174P: cyclodextrin glucosyltransferase mutant: alanine 156 into valine and leucine 174 into proline of SEQ ID NO: 1 (protein, Translated from synthetic DNA) SPDTSVDNKVNFSTDVIYQIVTDRFADGDRTNNPAGDAFSGDRSNLKLYFGGDWQGIIDKINDGYLTGMGVTALWISQPVENITSVIKYSGVNNTSYHGYWARDFKQTNDAFGDFADFQNLIDTAHAHNIKVVIDFAPNHTSPADRDNPGFAENGVLYDNGSLLGAYSNDTAGPFHHNGGTDFSTIEDGIYKNLYDLADINHNNNAMDAYFKSAIDLWLGMGVDGIRFDAVKHMPFGWQKSFVSSIYGGDHPVFTFGEWYLGADQTDGDNIKFANESGMNLLDFEYAQEVREVFRDKTETMKDLYEVLASTESQYDYINNMVTFIDNHDMDRFQVAGSGTRATEQALALTLTSRGVPAIYYGTEQYMTGDGDPNNRAMMTSFNTGTTAYKVIQALAPLRKSNPAIAYGTTTERWVNNDVLIIERKFGSSAALVAINRNSSAAYPISGLLSSLPAGTYSDVLNGLLNGNSITVGSGGAVTNFTLAAGGTAVWQYTAPETSPAIGNVGPTMGQPGNIVTIDGRGFGGTAGTVYFGTTAVTGSGIVSWEDTQIKAVIPKVAAGKTGVSVKTSSGTASNTFKSFNVLTGDQVTVRFLVNQANTNYGTNVYLVGNAAELGSWDPNKAIGPMYNQVIAKYPSWYYDVSVPAGTKLDFKFIKKGGGTVTWEGGGNHTYTTPASGVGTVTVDWQN",5.2,9.7,25,75,significantly improved,62.5
"A156V/L174P/A166V: cyclodextrin glucosyltransferase mutant: A156V, L174P and alanine 166 into valine of SEQ ID NO: 1 (protein, Translated from synthetic DNA) SPDTSVDNKVNFSTDVIYQIVTDRFADGDRTNNPAGDAFSGDRSNLKLYFGGDWQGIIDKINDGYLTGMGVTALWISQPVENITSVIKYSGVNNTSYHGYWARDFKQTNDAFGDFADFQNLIDTAHAHNIKVVIDFAPNHTSPADRDNPGFAENGVLYDNGSLLGVYSNDTAGPFHHNGGTDFSTIEDGIYKNLYDLADINHNNNAMDAYFKSAIDLWLGMGVDGIRFDAVKHMPFGWQKSFVSSIYGGDHPVFTFGEWYLGADQTDGDNIKFANESGMNLLDFEYAQEVREVFRDKTETMKDLYEVLASTESQYDYINNMVTFIDNHDMDRFQVAGSGTRATEQALALTLTSRGVPAIYYGTEQYMTGDGDPNNRAMMTSFNTGTTAYKVIQALAPLRKSNPAIAYGTTTERWVNNDVLIIERKFGSSAALVAINRNSSAAYPISGLLSSLPAGTYSDVLNGLLNGNSITVGSGGAVTNFTLAAGGTAVWQYTAPETSPAIGNVGPTMGQPGNIVTIDGRGFGGTAGTVYFGTTAVTGSGIVSWEDTQIKAVIPKVAAGKTGVSVKTSSGTASNTFKSFNVLTGDQVTVRFLVNQANTNYGTNVYLVGNAAELGSWDPNKAIGPMYNQVIAKYPSWYYDVSVPAGTKLDFKFIKKGGGTVTWEGGGNHTYTTPASGVGTVTVDWQN",6.8,9.5,29,71,significantly improved,112.5
"A156V/L174P/A166K: cyclodextrin glucosyltransferase mutant: A156V, L174P and alanine 166 into lysine of SEQ ID NO: 1 (protein, Translated from synthetic DNA) SPDTSVDNKVNFSTDVIYQIVTDRFADGDRTNNPAGDAFSGDRSNLKLYFGGDWQGIIDKINDGYLTGMGVTALWISQPVENITSVIKYSGVNNTSYHGYWARDFKQTNDAFGDFADFQNLIDTAHAHNIKVVIDFAPNHTSPADRDNPGFAENGVLYDNGSLLGKYSNDTAGPFHHNGGTDFSTIEDGIYKNLYDLADINHNNNAMDAYFKSAIDLWLGMGVDGIRFDAVKHMPFGWQKSFVSSIYGGDHPVFTFGEWYLGADQTDGDNIKFANESGMNLLDFEYAQEVREVFRDKTETMKDLYEVLASTESQYDYINNMVTFIDNHDMDRFQVAGSGTRATEQALALTLTSRGVPAIYYGTEQYMTGDGDPNNRAMMTSFNTGTTAYKVIQALAPLRKSNPAIAYGTTTERWVNNDVLIIERKFGSSAALVAINRNSSAAYPISGLLSSLPAGTYSDVLNGLLNGNSITVGSGGAVTNFTLAAGGTAVWQYTAPETSPAIGNVGPTMGQPGNIVTIDGRGFGGTAGTVYFGTTAVTGSGIVSWEDTQIKAVIPKVAAGKTGVSVKTSSGTASNTFKSFNVLTGDQVTVRFLVNQANTNYGTNVYLVGNAAELGSWDPNKAIGPMYNQVIAKYPSWYYDVSVPAGTKLDFKFIKKGGGTVTWEGGGNHTYTTPASGVGTVTVDWQN",5.1,10.1,24,76,significantly improved,59.4
"A156V/L174P/A166G: cyclodextrin glucosyltransferase mutant: A156V, L174P and alanine 166 into glycine of SEQ ID NO: 1 (protein, Translated from synthetic DNA) SPDTSVDNKVNFSTDVIYQIVTDRFADGDRTNNPAGDAFSGDRSNLKLYFGGDWQGIIDKINDGYLTGMGVTALWISQPVENITSVIKYSGVNNTSYHGYWARDFKQTNDAFGDFADFQNLIDTAHAHNIKVVIDFAPNHTSPADRDNPGFAENGVLYDNGSLLGGYSNDTAGPFHHNGGTDFSTIEDGIYKNLYDLADINHNNNAMDAYFKSAIDLWLGMGVDGIRFDAVKHMPFGWQKSFVSSIYGGDHPVFTFGEWYLGADQTDGDNIKFANESGMNLLDFEYAQEVREVFRDKTETMKDLYEVLASTESQYDYINNMVTFIDNHDMDRFQVAGSGTRATEQALALTLTSRGVPAIYYGTEQYMTGDGDPNNRAMMTSFNTGTTAYKVIQALAPLRKSNPAIAYGTTTERWVNNDVLIIERKFGSSAALVAINRNSSAAYPISGLLSSLPAGTYSDVLNGLLNGNSITVGSGGAVTNFTLAAGGTAVWQYTAPETSPAIGNVGPTMGQPGNIVTIDGRGFGGTAGTVYFGTTAVTGSGIVSWEDTQIKAVIPKVAAGKTGVSVKTSSGTASNTFKSFNVLTGDQVTVRFLVNQANTNYGTNVYLVGNAAELGSWDPNKAIGPMYNQVIAKYPSWYYDVSVPAGTKLDFKFIKKGGGTVTWEGGGNHTYTTPASGVGTVTVDWQN",4.4,10.9,20,80,significantly improved,–
